Assay results: patent US20200172626A1

Target: human 4-1BB expressed on cells (human) (UniProt Q07011)
Assay: flow cytometry dot plot (CD8-BV510 against BBK-4-Dylight488) on human CD8+ T cells activated with anti-CD3 for 2 days; antibody at 25 ng/ml, anti-mIgG-Dylight488

Chain of human 4-1BB expressed on cells (human) (Q07011 24-255 limits assumed): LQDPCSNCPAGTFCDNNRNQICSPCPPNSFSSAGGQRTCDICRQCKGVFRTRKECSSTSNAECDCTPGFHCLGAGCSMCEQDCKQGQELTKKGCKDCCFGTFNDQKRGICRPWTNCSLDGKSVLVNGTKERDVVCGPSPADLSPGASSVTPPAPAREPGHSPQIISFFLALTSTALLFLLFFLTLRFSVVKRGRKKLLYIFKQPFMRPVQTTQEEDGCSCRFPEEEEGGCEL

% of 4-1BB-positive CD8 T cells: 1.72%
Substance: BBK-4 murine anti-human 4-1BB antibody
